2 molecules from patent US20220281980A1 (Bristol-Myers Squibb, published 2022) can be followed below.

Assay [1] deals with T1, recombinant soluble human MICA*008 antigen (human, UniProt Q29983 24-307).
T1 construct: also called huIMICA-his allele *008; recombinant soluble MICA (allele 8)
T1 chain: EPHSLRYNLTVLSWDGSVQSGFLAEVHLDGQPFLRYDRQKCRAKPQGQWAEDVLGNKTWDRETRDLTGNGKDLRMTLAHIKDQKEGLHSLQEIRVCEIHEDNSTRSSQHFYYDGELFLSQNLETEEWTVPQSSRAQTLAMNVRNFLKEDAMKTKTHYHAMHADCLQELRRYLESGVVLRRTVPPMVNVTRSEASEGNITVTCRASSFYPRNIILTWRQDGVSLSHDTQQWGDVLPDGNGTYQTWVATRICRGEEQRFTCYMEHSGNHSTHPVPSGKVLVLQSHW
Description: BLI (Octet) sandwich binning on soluble MICA allele 8, row antibody captured; competitor (second antibody): MICA.2. As to the method:
(§1) The binning experiments were performed on an Octet HTX instrument at 25° C. in HEPES buffered saline (10 mM HEPES pH 7.4, 150 mM NaCl, 0.05% v/v surfactant P20, and 1 mg/mL BSA). Anti-MICA/B antibodies and NKG2D-mFc were captured on anti-Fc tips and remaining capture sites were blocked with an excess of negative control IgG. Recombinant soluble MICA (allele 8) was bound and subsequent binding (“sandwiching”) of anti-MICA/B antibodies was tested.
A general note: BLI is a label-free optical method that tracks binding on a fibre tip over time.

Assay [2] addresses T2, recombinant soluble human MICA*009 antigen (human, UniProt Q29983 24-307).
T2 construct: also called huIMICA-his allele *009
T2 chain: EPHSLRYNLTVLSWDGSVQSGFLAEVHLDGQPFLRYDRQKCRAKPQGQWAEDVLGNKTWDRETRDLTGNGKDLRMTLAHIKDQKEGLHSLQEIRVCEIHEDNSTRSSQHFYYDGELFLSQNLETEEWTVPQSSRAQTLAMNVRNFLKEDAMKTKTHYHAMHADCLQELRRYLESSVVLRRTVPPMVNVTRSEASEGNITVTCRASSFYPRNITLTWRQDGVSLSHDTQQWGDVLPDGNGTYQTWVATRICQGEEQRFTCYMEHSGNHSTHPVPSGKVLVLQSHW
Description: SPR (Biacore T200, 37 C), antibody captured on anti-human Fc, antigen 500 and 50 nM. As to the method: (§2) Anti-MICA/B antibodies were captured to α-human Fc surfaces. MICA allele antigens were injected at high and low nanomolar concentrations (500 nM and 50 nM, except indicated otherwise). The results for antibodies MICA.36 and MICA.38 (MICA.2 with a Ser inserted between residues 95 and 96 in the light chain) are shown in Table 2 below.
Background: In SPR one partner is held on a chip, and binding of the other changes the refractive index at the surface.

For assay [3], the target named is T3, recombinant soluble human MICA*002 antigen (human, UniProt Q29983 24-307).
T3 construct: also called huIMICA-his allele *002
T3 chain: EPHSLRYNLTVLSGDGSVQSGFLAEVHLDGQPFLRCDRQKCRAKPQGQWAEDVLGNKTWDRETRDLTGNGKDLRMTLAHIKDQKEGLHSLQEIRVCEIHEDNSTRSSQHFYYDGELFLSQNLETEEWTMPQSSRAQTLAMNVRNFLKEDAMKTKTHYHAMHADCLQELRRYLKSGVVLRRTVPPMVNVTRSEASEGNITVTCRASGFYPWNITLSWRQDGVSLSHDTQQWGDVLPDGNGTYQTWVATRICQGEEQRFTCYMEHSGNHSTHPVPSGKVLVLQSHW
Described as above. As to the method: as §2

Assay [4] addresses T4, recombinant soluble human MICA*004 antigen (human, UniProt Q29983 24-307).
T4 construct: also called huIMICA-his allele *004
T4 chain: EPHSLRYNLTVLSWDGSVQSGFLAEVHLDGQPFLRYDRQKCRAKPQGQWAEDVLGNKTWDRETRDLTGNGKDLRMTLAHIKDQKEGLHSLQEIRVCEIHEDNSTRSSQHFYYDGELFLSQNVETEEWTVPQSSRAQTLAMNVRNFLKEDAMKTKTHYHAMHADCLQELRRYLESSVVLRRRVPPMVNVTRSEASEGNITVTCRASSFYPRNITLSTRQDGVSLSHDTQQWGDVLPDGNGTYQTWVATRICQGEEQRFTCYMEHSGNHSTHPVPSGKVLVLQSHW
The assay is described as above. As to the method:
as §2

Assay [5] deals with T1, recombinant soluble human MICA*008 …. The assay is described as above. As to the method: as §2
Assay [6] shares this target. Put plainly: BLI (Octet) sandwich binning on soluble MICA allele 8, row antibody captured; competitor (second antibody): MICA.40. As for the experimental part: as §1
Assay [7] shares this target. Put plainly: BLI (Octet) sandwich binning on soluble MICA allele 8, row antibody captured; competitor (second antibody): MICA.38. As to the method:
as §1

For assay [8] the target is unchanged. Put plainly: BLI (Octet) sandwich binning on soluble MICA allele 8, row antibody captured; competitor (second antibody): MICA.39. As for the experimental part: as §1
Assay [9] shares this target. Description: BLI (Octet) sandwich binning on soluble MICA allele 8, row antibody captured; competitor (second antibody): MICA.36. As to the method:
as §1

Assay [10] addresses T2, recombinant soluble human MICA*009 …. Put plainly: SPR (Biacore 3000), antibody captured on Protein G chip, huMICA-his analyte. As for the experimental part: (§3) Kinetics and affinity of anti-MICA/B antibodies MICA.2, 19G6, 16A5, and 71C2 towards human MICA alleles (huIMICA-his allele *002, *004, *008, and *009) were also determined on a BIACORE 3000® instrument using the following conditions: [0571] Running Buffer: HES-EP running buffer [0572] Chip: CM5 Protein G Chip Fc1: Blank. Fc2-4: ˜200Rus [0573] Ab: 5 ug/mL, 10 uL @ 10 uL/min [0574] Ag binding: 5 min association, 7 min dissociation @ 25 uL/min, [0575] Regeneration: Glycine 1.7, 10 uL @ 100 uL/min followed by 60s wash by HES-EP

Assay [11] has as its target T3, recombinant soluble human MICA*002 …. The description is as above. As to the method: as §3
For assay [12], the target named is T4, recombinant soluble human MICA*004 …. The description is as above. As to the method:
as §3

The target in assay [13] is T1, recombinant soluble human MICA*008 …. The assay is described as above. As for the experimental part:
as §3

In assay [14] the target is T2, recombinant soluble human MICA*009 …. Description: SPR (Biacore 3000), antibody captured on Protein G chip, huMICA-his analyte; power of ten not given. As to the method:
as §3

Assay [15] addresses T3, recombinant soluble human MICA*002 …. Described as above. As to the method:
as §3

The target in assay [16] is T4, recombinant soluble human MICA*004 …. Described as above. As to the method:
as §3

Assay [17] deals with T1, recombinant soluble human MICA*008 …. Described as above. As for the experimental part:
as §3

Assay [18] deals with T5, cynomolgus monkey MICA/B clone #6 expressed on CHO cells (cynomolgus monkey).
T5 construct: whole, on cells; also called cyno#6; CHO-cyno MICA clone #6
Put plainly: flow cytometry, transfected CHO cells.

Assay [19] concerns the target T6, human MICB expressed on transduced cells (human, UniProt Q29980 23-382).
T6 construct: also called MICB*005
T6 chain: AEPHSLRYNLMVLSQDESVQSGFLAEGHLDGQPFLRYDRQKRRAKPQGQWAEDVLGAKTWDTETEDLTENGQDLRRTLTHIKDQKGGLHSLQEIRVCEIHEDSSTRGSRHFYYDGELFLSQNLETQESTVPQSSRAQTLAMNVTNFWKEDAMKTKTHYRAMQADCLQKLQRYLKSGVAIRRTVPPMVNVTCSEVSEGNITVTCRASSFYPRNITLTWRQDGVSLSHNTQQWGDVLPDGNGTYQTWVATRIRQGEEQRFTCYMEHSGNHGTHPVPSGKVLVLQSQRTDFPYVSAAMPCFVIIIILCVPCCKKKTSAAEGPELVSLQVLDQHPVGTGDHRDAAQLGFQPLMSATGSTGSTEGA
Description: flow cytometry, transfected CHO cells. Background: Flow cytometry measures light scatter and fluorescence of single cells or particles in a stream.

Assay [20] addresses T7, cynomolgus monkey MICA/B clone #4 expressed on CHO cells (cynomolgus monkey).
T7 construct: whole, on cells; also called cyno#4; CHO-cyno MICA clone #4
Put plainly: flow cytometry, transfected CHO cells.

“And” between values parts separate entries of the source, which are not always exact repeats. Equal entries are not always repeated.

As usually defined, the Kd is a measure of binding affinity in units of concentration. For orientation: koff means the first-order rate constant of dissociation. One may read the kon as the second-order rate constant of association. As a reminder, the EC50 is the midpoint of the concentration-response curve.

B1: MICA.38 (antibody, V domains shown)
VH: EVQLVESGGGLVQPGGSLRLSCAASGFTFSTYSMNWVRQAPGKGLEWVSYISYRSRTIYYADSVKGRFTISRDNARNSLYLQMNSLRDEDTAVYYCARWGYGSGGFDYWGQGTLVTVSS
VL: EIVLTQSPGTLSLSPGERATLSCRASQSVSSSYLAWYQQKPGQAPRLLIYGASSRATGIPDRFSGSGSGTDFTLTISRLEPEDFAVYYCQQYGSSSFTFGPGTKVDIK
notes: MICA.2 with a Ser inserted between residues 95 and 96 in the light chain; also called MICA.38_3F5_S95k
As for B1, the “simultaneous binding (0 = no, 1 = yes)” value amounted to 0 in assay [1]; 0 in assay [6]; 0 in [7]; 0 in assay [8]; 1 in assay [9]. In addition, the equilibrium dissociation constant (Kd) in assay [2] was 126 nM; in assay [3] it was 123 nM; in assay [4] it was 104 nM; in assay [5], 130 nM. Also, the off-rate constant (koff) in [2] came out at 0.0502 s⁻¹; in assay [3], 0.127 s⁻¹; in assay [4], 0.0426 s⁻¹; in assay [5], 0.078 s⁻¹. Moreover, the kon amounted to 397000 M⁻¹ s⁻¹ in [2], 1.03e+06 M⁻¹ s⁻¹ in assay [3], 410000 M⁻¹ s⁻¹ in [4] and 600000 M⁻¹ s⁻¹ in assay [5].

B2: 16A5 (antibody, V domains shown)
VH: QVQLVESGGDVVQPGRSLRLSCAASGFTFSNYNIHWVRQAPGKGLEWVAVIRYDGINKYYADSVKGRFIISRDNSKNTLYLQMNSLRAEDTAVYYCASGPPDAFNIWGQGTMVTVSS
VL: AIQLTQSPSSLSASVGDRVTITCRASQGISSALAWYQQKPGKVPKSLIYDASSLESGVPSRFSGSGSGTDFTLTISSLQPEDFATYYCQQFNSYPITFGQGTRLEIK
notes: Hybridoma antibody; #1 and #2 are two hybridoma lines from the same clone; also called 16A5 (#1); 16A5 (#2)
Take B2: the dissociation constant (Kd) in assay [10] amounted to 12.9 nM; in assay [11], 147 nM; in [12] it was 6.89 nM; in assay [13] it was 4.55 nM. Moreover, the koff was found to be 2.15 s⁻¹ in assay [14], 0.0104 s⁻¹ in assay [15], 1.72 s⁻¹ in assay [16] and 1.72 s⁻¹ in [17]. In addition, the EC50 was 9.26 nM and 13.8 nM in [18]; 8.16 nM and 21.6 nM in [19]; 0.856 nM and 2.38 nM in assay [20].
